Assay results reported in publication doi:10.1101/2021.03.29.435803.

Biological target: HA-FBXW7 (UniProt Q8VBV4)
Assay: FLAG IP, HA immunoblot
Conditions: reference: wild type

Row | binding against the reference (sites T243,S247) | binding against the reference (sites T171,S175) | Substance
1 | weaker | – | KLF2 (from UniProt Q60843) 2A C (T243A/S247A)
2 | – | weaker | KLF2 (from UniProt Q60843) 2A N (T171A/S175A)
